For test [1], the target named is T1, recombinant human SOST (rhSOST) (human, UniProt Q9BQB4 24-213).
T1 construct: Treated as one molecule; also called recombinant human SOST protein; human sclerostin
T1 sequence: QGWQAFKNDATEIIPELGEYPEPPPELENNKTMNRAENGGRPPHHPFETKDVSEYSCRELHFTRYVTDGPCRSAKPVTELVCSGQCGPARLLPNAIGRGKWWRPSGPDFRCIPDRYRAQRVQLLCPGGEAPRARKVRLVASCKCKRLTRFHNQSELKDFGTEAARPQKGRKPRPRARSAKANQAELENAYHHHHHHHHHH
As to the kind of experiment: SPR Biacore T200, IgG captured via anti-human Fc, rhSOST analyte, 37 C. For orientation: In SPR one partner is held on a chip, and binding of the other changes the refractive index at the surface.

Test [2] addresses T1, recombinant human SOST (rhSOST). Kind of test: cell-based or functional assay.

Positions count from the first letter of the chain named.

As usually defined, the Kd is the free concentration of one partner at which half of the binding sites on the other are occupied at equilibrium, for simple one-to-one binding. What is called koff is the first-order rate constant of dissociation. Broadly, the kon is the second-order rate constant of association.

B1: DM21 (antibody, V domains shown)
VH: EVQLLESGGGLVQPGGSLRLSCAASGHTFSDYWMQWVRQAPGKGLEWIGAIYPGDGDTRYNQKFKDRFTISRDNSKNTLYLQMNSLRAEDTAVYYCARSMDYWGQGTLVTVSS
VL: DIVMTQSPDSLAVSLGERATINCRASKTVDSYGNSFMHWFQQKPGQPPKLLIYHSSNLESGVPDRFSGSGSGTDFTLTISSLQAEDVAVYYCLQTIEDPYTFGQGTKLEIK
notes: also called mH1/mL2
For the molecule B1, in test [1], the dissociation constant Kd came to 8 pM, the koff stood at 7.41e-05 s⁻¹ and the kon worked out at 8.86e+06 M⁻¹ s⁻¹. Also, in test [2], the “EC50, neutralization of rhSOST-mediated inhibition of Wnt-10B luciferase reporter activity in U-2OS-TF-Wnt10B cells” value was 5.53 ug/ml (printed 'Mg/ml').

B2: DM4 (antibody, human IgG2, kappa, V domains shown)
VH: B1 VH with I48V
VL: DIVMTQSPDSLAVSLGERATINCRASKTVDSYGNSFMHWFQQKPGQPPKLLIHHSSNLESGVPDRFSGSGSGTDFTLTISSLQAEDVAVYYCLQTIEFPYTFGQGTKLEIKR
notes: mAb names lost in this copy; also called mH10/mL13
Consider B2, for which, in test [1], the Kd worked out at 130 pM, the koff was 0.000508 s⁻¹ and the kon came out at 3.91e+06 M⁻¹ s⁻¹. For the same molecule, the “EC50, neutralization of rhSOST-mediated inhibition of Wnt-10B luciferase reporter activity in U-2OS-TF-Wnt10B cells” value in test [2] was 2.07 ug/ml (printed 'Mg/ml').

B3: DP1 (antibody, human IgG2, kappa, V domains shown)
VH: EVQLVESGGGLVQPGGSLRLSCAASGFTFSIYAMSWVRQAPGKGLEWVALISGGDTYTYYADSVKGRFTISRDNAKNSLYLQMNSLRAEDTAVYYCARHGYDDFDYWGQGTLVTVSS
VL: DVVMTQSPLSLPVTLGQPASISCRSSQSLLDNDGETYLNWFQQRPGQSPRRLIYQVSKLDSGVPDRFSGSGSGTDFTLKISRVEAEDVGVYYCWQGTHFPHTFGGGTKVEIKR
notes: also called pH1/pL1
For the molecule B3, in test [1], the Kd turned out to be 3700 pM, the koff was found to be 0.00667 s⁻¹ and the kon stood at 1.8e+06 M⁻¹ s⁻¹. Further, the “EC50, neutralization of rhSOST-mediated inhibition of Wnt-10B luciferase reporter activity in U-2OS-TF-Wnt10B cells” value in test [2] was 22 ug/ml (printed 'Mg/ml').

Source of the values: patent WO2015087187A1 (dated 2015).
